Experimental data reported in patent publication US8148141.
Ends that are not written are not given here. carboxyfluorescein = carboxyfluorescein (fluorescent group)

Molecular target: amylase
Experiment: fluorescence of immobilized carboxyfluorescein-labeled peptide on chip, ex 490 nm / em 520 nm, 1.0 uM amylase, 25 C, 5 min

increase of the fluorescence intensity (fold): 10 times
B1: Lys(Rf)-Tyr-Gln-Ser-Trp-Arg-Tyr-Ser-Gln-Ala-Cys-NH2 (peptide)
peptide: K(carboxyfluorescein)YQSWRYSQAC-NH2
